Source: US20220332804A1 (CSL INNOVATION, published 2022)

Assays:
Experiment in all cases: SPR, mAb captured, C2 mutant analyte;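 also: Anti-C2 mAbs captured on goat anti-human IgG Biacore CM5 chips, alanine or serine C2 surface mutants flowed over at 37 °C, double-referenced sensorgrams fitted to a 1:1 binding model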
human C2 N380A = molecular target: T1, human C2 N380A (human, UniProt P06681 21-752)
T1 sequence: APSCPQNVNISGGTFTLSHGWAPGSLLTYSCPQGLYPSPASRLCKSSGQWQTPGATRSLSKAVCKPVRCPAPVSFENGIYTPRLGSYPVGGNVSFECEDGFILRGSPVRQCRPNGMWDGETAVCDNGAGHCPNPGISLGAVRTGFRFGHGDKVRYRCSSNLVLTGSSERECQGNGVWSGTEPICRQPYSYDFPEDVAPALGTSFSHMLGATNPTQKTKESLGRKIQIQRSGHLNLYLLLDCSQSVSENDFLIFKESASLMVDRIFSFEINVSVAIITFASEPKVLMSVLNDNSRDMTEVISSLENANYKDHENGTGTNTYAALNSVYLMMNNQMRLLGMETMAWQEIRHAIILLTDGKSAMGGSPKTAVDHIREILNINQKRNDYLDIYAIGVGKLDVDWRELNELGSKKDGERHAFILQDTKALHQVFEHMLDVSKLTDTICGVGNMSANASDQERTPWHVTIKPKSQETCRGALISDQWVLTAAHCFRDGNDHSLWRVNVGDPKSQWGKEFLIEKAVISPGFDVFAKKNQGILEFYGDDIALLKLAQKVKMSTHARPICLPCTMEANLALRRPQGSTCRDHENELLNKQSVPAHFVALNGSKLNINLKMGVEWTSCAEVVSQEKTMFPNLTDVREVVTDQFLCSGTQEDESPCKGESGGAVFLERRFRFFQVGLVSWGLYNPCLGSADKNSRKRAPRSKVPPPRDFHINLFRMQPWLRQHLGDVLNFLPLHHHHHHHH

human C2 K430A = molecular target: T2, human C2 K430A (human, UniProt P06681 21-752)
T2 sequence: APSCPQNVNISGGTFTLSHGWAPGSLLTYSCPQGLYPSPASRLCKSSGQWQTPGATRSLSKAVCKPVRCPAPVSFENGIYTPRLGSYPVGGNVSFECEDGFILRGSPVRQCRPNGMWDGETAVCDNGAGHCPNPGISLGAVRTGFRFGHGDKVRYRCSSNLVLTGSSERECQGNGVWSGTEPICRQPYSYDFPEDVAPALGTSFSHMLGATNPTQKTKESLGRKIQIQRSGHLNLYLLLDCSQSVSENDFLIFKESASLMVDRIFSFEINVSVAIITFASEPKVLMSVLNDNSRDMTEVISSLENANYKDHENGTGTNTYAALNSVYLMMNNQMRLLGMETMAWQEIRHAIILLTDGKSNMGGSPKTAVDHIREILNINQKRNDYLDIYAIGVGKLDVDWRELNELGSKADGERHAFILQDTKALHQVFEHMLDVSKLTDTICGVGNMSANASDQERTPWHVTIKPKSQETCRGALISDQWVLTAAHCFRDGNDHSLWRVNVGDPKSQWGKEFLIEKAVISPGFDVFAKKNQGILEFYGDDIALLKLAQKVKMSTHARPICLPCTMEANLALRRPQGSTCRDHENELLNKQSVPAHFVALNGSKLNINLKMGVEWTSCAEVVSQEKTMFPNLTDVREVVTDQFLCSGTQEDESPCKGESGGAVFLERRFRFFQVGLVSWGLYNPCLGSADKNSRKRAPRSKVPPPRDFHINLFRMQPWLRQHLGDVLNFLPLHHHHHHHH

human C2 E433A = molecular target: T3, human C2 E433A (human, UniProt P06681 21-752)
T3 sequence: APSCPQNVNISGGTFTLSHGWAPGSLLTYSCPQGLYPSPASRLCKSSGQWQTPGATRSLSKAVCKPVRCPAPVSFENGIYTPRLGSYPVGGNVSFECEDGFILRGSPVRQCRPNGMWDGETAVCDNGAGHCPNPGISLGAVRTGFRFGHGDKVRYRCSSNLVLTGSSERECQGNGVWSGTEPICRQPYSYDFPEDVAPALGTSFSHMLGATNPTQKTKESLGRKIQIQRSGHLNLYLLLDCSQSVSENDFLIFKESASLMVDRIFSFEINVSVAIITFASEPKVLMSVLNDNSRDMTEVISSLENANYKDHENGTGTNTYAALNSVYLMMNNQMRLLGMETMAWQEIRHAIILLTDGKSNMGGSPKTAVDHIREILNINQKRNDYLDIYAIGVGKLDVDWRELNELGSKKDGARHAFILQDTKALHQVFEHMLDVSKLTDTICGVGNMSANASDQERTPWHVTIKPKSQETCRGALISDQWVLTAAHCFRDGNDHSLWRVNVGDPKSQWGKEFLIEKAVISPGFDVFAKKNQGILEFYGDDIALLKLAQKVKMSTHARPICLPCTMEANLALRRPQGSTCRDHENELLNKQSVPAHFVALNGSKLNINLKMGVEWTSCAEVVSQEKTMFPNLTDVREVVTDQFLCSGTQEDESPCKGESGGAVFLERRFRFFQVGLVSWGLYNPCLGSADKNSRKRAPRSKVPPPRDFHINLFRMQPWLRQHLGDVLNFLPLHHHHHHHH

human C2 A470S = molecular target: T4, human C2 A470S (human, UniProt P06681 21-752)
T4 sequence: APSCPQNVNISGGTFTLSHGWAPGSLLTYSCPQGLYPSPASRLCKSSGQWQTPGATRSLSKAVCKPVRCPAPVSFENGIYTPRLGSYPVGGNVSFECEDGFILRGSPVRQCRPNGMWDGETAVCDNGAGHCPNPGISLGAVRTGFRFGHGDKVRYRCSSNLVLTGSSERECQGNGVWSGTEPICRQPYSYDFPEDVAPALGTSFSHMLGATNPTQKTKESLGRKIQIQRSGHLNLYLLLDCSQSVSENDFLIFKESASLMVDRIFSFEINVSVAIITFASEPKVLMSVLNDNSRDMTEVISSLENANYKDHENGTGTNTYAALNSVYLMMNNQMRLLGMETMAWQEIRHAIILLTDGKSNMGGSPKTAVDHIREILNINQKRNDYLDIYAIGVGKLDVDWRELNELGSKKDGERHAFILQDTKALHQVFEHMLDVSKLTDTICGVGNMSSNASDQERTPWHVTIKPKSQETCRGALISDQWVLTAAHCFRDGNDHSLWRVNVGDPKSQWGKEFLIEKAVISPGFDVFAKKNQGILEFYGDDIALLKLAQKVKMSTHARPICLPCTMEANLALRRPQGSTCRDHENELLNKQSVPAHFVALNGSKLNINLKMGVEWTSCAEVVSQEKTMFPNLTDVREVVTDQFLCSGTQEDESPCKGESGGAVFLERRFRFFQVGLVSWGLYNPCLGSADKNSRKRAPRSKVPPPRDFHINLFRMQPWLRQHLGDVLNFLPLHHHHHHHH

Kd (human C2 N380A): 58.8 nM
Kd (human C2 K430A): 308 nM
Kd (human C2 E433A): 16.4 nM
Kd (human C2 A470S): 32.8 nM
B1: RF16-214 (antibody, V domains shown)
VH: EVQLLESGGGLVQPGGSLRLSCAASGFTFSWYQMMWVRQAPGKGLEWVSRIYPSGGGTAYADSVKGRFTISRDNSKNTLYLQMNSLRAEDTAVYYCARDAGYGDNWGQGTLVTVSS
VL: QSALTQPPSVSVSPGQTASITCSGDKLGEKYASWYQQKAGQSPVMVIYQDRKRPSGIPERFSGSNSGNTATLTISGTQAMDEADYYCQAWDTRAVVFGGGTKLTVLG
